B1: H4H12899P (antibody, human IgG4 S228P, kappa, V domains shown)
VH: QVQLVESGGDLVKPGGSLRLSCATSGFTFSDFYMTWIRQAPGKGLEWISYISNSGSIVKYADSVKGRFTISRDNAKNSLYLQMNSLRAEDTAIYYCARFYGDRWGQGTLVTVSS
VL: DIQLTQSPSFLSASVGDRVTITCWASQGISTFLAWYQQKPGKAPKLLIYAASTLQSGVPSRFSGSGSGTDFTLTISSLQPEDFATYHCQQLNNYPWTFGQGTKVEIKR
notes: anti-IL2Rgamma mAb expressed with human IgG4 Fc
B2: H4H12900P (antibody, human IgG4 S228P, kappa, V domains shown)
VH: QVQLVESGGGLVKPGGSLRLSCEASGFTFNDFYMTWIRQAPGKGLEWIAYISKSGDKMRYADSVKGRFSTSRDNAKNSLSLQMNSLRAEDTAVYYCARFYGDIWGQGTLVTVSS
VL: B1 VL with G28D, T31S, A34V, K45N, T53A, D70E, T85S, H87Y, Q89E
notes: as for B1
B3: H4H13541P (antibody, human IgG4 S228P, kappa, V domains shown)
VH: EVQLVESGGGVVRPGGSLRLSCAASGFIFDDYDMSWVRQPPGRGLEWVSGIDWFGGTRGYADSMKGRFTISRDNAKNSLYLQMNSLRVEDTAFYYCARGGAIVGAVTPFDYWGQGTLVTVSS
VL: DIQMTQSPSSLSASVGNRVTLSCRASQSINTYLSWYQQRPGKAPKLLIYAASSLQSGVPSRFSGSGAGTDFTLTISSLQPEDFATYYCQQSYSAPLTFGGGTKVEIKR
notes: as for B1

Residue numbers refer to the chain shown, from its start.

In one experiment the target is T1, Human IL2Rγ extracellular domain expressed with a C-terminal myc-myc-hexahistidine tag (human).
T1 construct: also called hIL-2Rg-MMH; hIL-2RG-MMH
T1 chain: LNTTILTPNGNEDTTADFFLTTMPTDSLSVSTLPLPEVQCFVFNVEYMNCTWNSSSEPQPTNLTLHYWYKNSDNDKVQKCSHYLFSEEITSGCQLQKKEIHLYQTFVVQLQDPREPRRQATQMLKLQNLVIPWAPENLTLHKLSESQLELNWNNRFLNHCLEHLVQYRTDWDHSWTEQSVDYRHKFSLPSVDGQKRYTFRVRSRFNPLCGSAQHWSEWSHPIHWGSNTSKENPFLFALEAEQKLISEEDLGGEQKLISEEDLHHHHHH
Put plainly: SPR, captured mAb, 25C, dissociation pH 7.4. As for the experimental part: (§1) The dissociation rate constant (kd) for binding of IL-2Rγ reagents to purified anti-IL2Rγ monoclonal antibodies was determined using a real-time surface plasmon resonance based Biacore 4000 biosensor platform. […] The CM5 Biacore sensor surface derivatized by amine coupling with monoclonal mouse anti-human Fc antibody (GE, Catalog # BR-1008-39) was used to capture anti-IL2Rγ monoclonal antibodies expressed with human IgG4 Fc. All the IL2Rγ reagents were expressed with a C-terminal myc-myc-hexahistidine tag (subsequently referred to with a -MMH suffix). […] The dissociation of bound IL-2Rg-MMH was performed in PBS-T-pH7.4 or PBS-T-pH6.0 running buffers for 6 minutes.
(§2) Dissociation rate constants (kd) in two running buffers were determined by fitting the real-time binding sensorgrams to a 1:1 binding model using Scrubber 2.0c curve-fitting software. Values of dissociation rate for […] mAb binding to hIL-2RG-MMH and mfIL-2RG-MMH at 25° C. and 37° C. in PBS-T-pH7.4 and PBS-T-pH6.0 is shown in Table 2-1 through Table 2-8.
On the technique in general: Surface plasmon resonance follows binding to a sensor surface in real time, without labels.
A word on the koff: it is the rate constant with which the complex falls apart. Lower therefore signals a long-lived complex. For the molecule B1, the “100 nM Ag Bound (RU)” value came out at 118 RU, the dissociation rate constant (koff) amounted to 0.000174 s⁻¹ and the “t1/2” value worked out at 66 min.

In the case of B2, the “100 nM Ag Bound (RU)” value worked out at 130 RU, the koff was determined as 0.000175 s⁻¹ and the “t1/2” value was 66 min.

B3: the “100 nM Ag Bound (RU)” value was determined as 72 RU, the koff is 0.000165 s⁻¹ and the “t1/2” value came out at 70 min.

In the next experiment the target is T2, Macaca fascicularis IL2Rγ extracellular domain expressed with a C-terminal myc-myc-hexahistidine tag (Macaca fascicularis).
T2 construct: also called mfIL-2Rg-MMH; mfIL-2RG-MMH
T2 chain: T1 chain with T14A, A16T, T22S, H141R, T228S
Nature of the experiment: SPR, captured mAb, 25C, dissociation pH 7.4. As for the experimental part:
as §1, §2
Take B1: the “100 nM Ag Bound (RU)” value is 117 RU, the koff turned out to be 0.000167 s⁻¹ and the “t1/2” value was 69 min.

Take B2: the “100 nM Ag Bound (RU)” value amounted to 129 RU, the koff was 0.000175 s⁻¹ and the “t1/2” value was determined as 66 min.

Consider B3, for which the “100 nM Ag Bound (RU)” value turned out to be 80 RU, the koff is 0.000222 s⁻¹ and the “t1/2” value stood at 52 min.

For another experiment, the target named is T1, Human IL2Rγ extracellular domain …. Nature of the experiment: SPR, captured mAb, 25C, dissociation pH 6.0. On the procedure: as §1, §2
B1: the “100 nM Ag Bound (RU)” value was found to be 96 RU, the koff turned out to be 0.000568 s⁻¹ and the “t1/2” value was found to be 20 min.

For B2, the “100 nM Ag Bound (RU)” value came out at 101 RU, the koff is 0.000692 s⁻¹ and the “t1/2” value amounted to 17 min.

Consider B3, for which the “100 nM Ag Bound (RU)” value was determined as 66 RU, the koff amounted to 0.000469 s⁻¹ and the “t1/2” value amounted to 25 min.

The target in the next experiment is T2, Macaca fascicularis IL2Rγ extracellular …. Put plainly: SPR, captured mAb, 25C, dissociation pH 6.0. As for the experimental part: as §1, §2
On to B1, for which the “100 nM Ag Bound (RU)” value is 95 RU, the koff is 0.000703 s⁻¹ and the “t1/2” value worked out at 16 min.

B2: the “100 nM Ag Bound (RU)” value was 100 RU, the koff was 0.000671 s⁻¹ and the “t1/2” value was determined as 17 min.

For B3, the “100 nM Ag Bound (RU)” value was 69 RU, the koff was found to be 0.000497 s⁻¹ and the “t1/2” value is 23 min.

The target of a further experiment is T1, Human IL2Rγ extracellular domain …. Nature of the experiment: SPR, captured mAb, 37C, dissociation pH 7.4. On the procedure:
as §1, §2
Consider B1, for which the “100 nM Ag Bound (RU)” value was 158 RU, the koff is 0.000668 s⁻¹ and the “t1/2” value turned out to be 17 min.

B2: the “100 nM Ag Bound (RU)” value is 162 RU, the koff stood at 0.000711 s⁻¹ and the “t1/2” value came out at 16 min.

As to B3, the “100 nM Ag Bound (RU)” value is 98 RU, the koff was determined as 0.000532 s⁻¹ and the “t1/2” value was 22 min.

The next experiment has the same target. Nature of the experiment: SPR, captured mAb, 37C, dissociation pH 6.0. As for the experimental part:
as §1, §2
For the molecule B1, the “100 nM Ag Bound (RU)” value is 125 RU, the koff stood at 0.00219 s⁻¹ and the “t1/2” value is 5 min.

Turning to B2, the “100 nM Ag Bound (RU)” value was determined as 133 RU, the koff stood at 0.00271 s⁻¹ and the “t1/2” value stood at 4 min.

On to B3, for which the “100 nM Ag Bound (RU)” value worked out at 95 RU, the koff came to 0.00158 s⁻¹ and the “t1/2” value is 7 min.

The record behind these values is patent publication US20200247894A1 (Regeneron, published 2020).
